The text below walks through data of article PMC6614801 (2019).

Sequences and labels used below:
B2: N-terminally His6-tagged NusA^AR2 (domain or fragment)
chain: DNKPADDLLNLEGVDRDLAFKLAARGVCTLEDLAEQGIDDLADIEGLTDEKAGALIMAARNICWFGDEA

What all share (experiment): SPR
Experiment [1] has as its target B2.
The next experiment addresses SuhB^KL251/254AA (E. coli, UniProt P0ADG4 1-267, KL251/254AA | KL251/254AA).
Another experiment concerns the target SuhB^K108A (E. coli, UniProt P0ADG4 1-267, K108A).

B1: SuhB (inositol mono-phosphatase SuhB), wild type (natural protein)
chain: MHPMLNIAVRAARKAGNLIAKNYETPDAVEASQKGSNDFVTNVDKAAEAVIIDTIRKSYPQHTIITEESGELEGTDQDVQWVIDPLDGTTNFIKRLPHFAVSIAVRIKGRTEVAVVYDPMRNELFTATRGQGAQLNGYRLRGSTARDLDGTILATGFPFKAKQYATTYINIVGKLFNECADFRRTGSAALDLAYVAAGRVDGFFEIGLRPWDFAAGELLVREAGGIVSDFTGGHNYMLTGNIVAGNPRVVKAMLANMRDELSDALKR
Regarding B1, the dissociation rate constant (koff) in experiment [1] was found to be 0.0555 s⁻¹.
With B2, the dissociation rate constant (koff) with SuhB^KL251/254AA is 0.341 s⁻¹; with SuhB^K108A, 0.0498 s⁻¹.
